Results taken from PMC8714817.

Tests used:
[1] = biological target: HomA, outer membrane protein of Helicobacter pylori (recombinant, C-terminal His-tag) (Helicobacter pylori strain J99); assay: SAXS; ~2.5 mg/ml protein in 20 mM Tris-Cl pH 8, 200 mM NaCl, 5 mM BME; molecular weight from Porod volume, concentration-independent
[2] = biological target: HomA, outer membrane protein of Helicobacter pylori (recombinant, C-terminal His-tag) (Helicobacter pylori strain J99); assay: SDS-PAGE of SEC fractions; monomer and dimer peak fractions of the size exclusion runs on SDS-PAGE with or without beta-mercaptoethanol
[3] = biological target: HomA, outer membrane protein of Helicobacter pylori (recombinant, C-terminal His-tag) (Helicobacter pylori strain J99); assay: SEC; 1 mg protein on Superose 12, 50 mM Tris-Cl pH 8.0, 300 mM NaCl, 4 °C, 0.5 ml/min; alone or with detergents (LDAO, CHAPS, TWEEN 20) or 1 mM lipids (DMPC, DOPC); calibrated with molecular weight markers
[4] = biological target: HomB, outer membrane protein of Helicobacter pylori (recombinant, C-terminal His-tag) (Helicobacter pylori strain J99); assay: SAXS; ~2.5 mg/ml protein in 20 mM Tris-Cl pH 8, 200 mM NaCl, 5 mM BME; molecular weight from Porod volume, concentration-independent
[5] = biological target: HomB, outer membrane protein of Helicobacter pylori (recombinant, C-terminal His-tag) (Helicobacter pylori strain J99); assay: SDS-PAGE of SEC fractions; monomer and dimer peak fractions of the size exclusion runs on SDS-PAGE with or without beta-mercaptoethanol
[6] = biological target: HomB, outer membrane protein of Helicobacter pylori (recombinant, C-terminal His-tag) (Helicobacter pylori strain J99); assay: SEC; 1 mg protein on Superose 12, 50 mM Tris-Cl pH 8.0, 300 mM NaCl, 4 °C, 0.5 ml/min; alone or with detergents (LDAO, CHAPS, TWEEN 20) or 1 mM lipids (DMPC, DOPC); calibrated with molecular weight markers

Measured: stoichiometry N

HomA, outer membrane protein of Helicobacter pylori (recombinant, C-terminal His-tag) (natural protein)
2: [1] | [2] | [3]

HomB, outer membrane protein of Helicobacter pylori (recombinant, C-terminal His-tag) (natural protein)
2: [4] | [5] | [6]
